Laboratory results taken from US20250361299A1 (published 2025).
Each block holds one binder with its values, some of them ahead of it.

Key:
[1] = molecular target: T1, Human CD3 protein (human, UniProt P07766 23-126); test: ELISA
T1 chain: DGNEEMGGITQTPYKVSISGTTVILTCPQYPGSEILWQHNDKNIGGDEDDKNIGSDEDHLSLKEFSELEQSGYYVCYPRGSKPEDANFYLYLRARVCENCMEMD

[2] = molecular target: T2, Recombinant human EGFR (human, UniProt P00533 25-645); test: ELISA
[3] = molecular target: T1, Human CD3 protein; test: ELISA; without uPA
[4] = molecular target: T2, Recombinant human EGFR; test: ELISA; without uPA
[5] = molecular target: T1, Human CD3 protein; test: ELISA
[6] = molecular target: T2, Recombinant human EGFR; test: ELISA; remark: listed apart in the source
[7] = molecular target: T1, Human CD3 protein; test: ELISA
[8] = molecular target: T2, Recombinant human EGFR; test: ELISA; remark: listed apart in the source

EC50 [1]: 7.43 µg/mL | EC50 [2]: 0.255 µg/mL
B1: 1.4.3M-Pa-Noncleavable (antibody)
chain 1: QDGNEEMGGIGGGSQDGNEEMGGGGGSGGGSGGSEVQLVESGGGLVQPGGSLRLSCAASGFTFNTYAMNWVRQAPGKGLEWVARIRSKYNNYATYYADSVKGRFTISRDDSKNTLYLQMNSLRAEDTAVYYCARHGNFGSSYVSYFAYWGQGTTVTVSSGGGSSGGGGSGGGGSQVQLQESGPGLVKPSETLSLTCTVSGGSVSSGDYYWTWIRQSPGKGLEWIGHIYYSGNTNYNPSLKSRLTISIDTSKTQFSLKLSSVTAADTAIYYCVRDRVTGAFDIWGQGTMVTVSSASTKGPSVFPLAPSSKSTSGGTAALGCLVKDYFPEPVTVSWNSGALTSGVHTFPAVLQSSGLYSLSSVVTVPSSSLGTQTYICNVNHKPSNTKVDKKVEPKSCPPCPAPEAAGGPSVFLFPPKPKDTLMISRTPEVTCVVVDVSHEDPEVKFNWYVDGVEVHNAKTKPREEQYNSTYRVVSVLTVLHQDWLNGKEYKCKVSNKALPAPIEKTISKAKGQPREPQVYTLPPSRDELTKNQVSLLCLVKGFYPSDIAVEWESNGQPENNYKTTPPVLDSDGSFFLHSKLTVDKSRWQQGNVFSCSVMHEALHNHYTQKSLSLSPGK
chain 2: not shown

EC50 [3]: 47.2 µg/mL | EC50 [4]: 0.0154 µg/mL
B2: 1.6.1M-Pa proBiTE (bispecific antibody)
heavy: QDGNEEMGGGSQDGNEEMGGIGGGSGGGGSGLSGRSDNHGGGGSEVQLVESGGGLVQPGGSLRLSCAASGFTFNTYAMNWVRQAPGKGLEWVARIRSKYNNYATYYADSVKGRFTISRDDSKNTLYLQMNSLRAEDTAVYYCARHGNFGSSYVSYFAYWGQGTTVTVSSASTKGPSVFPLAPSSKSTSGGTAALGCLVKDYFPEPVTVSWNSGALTSGVHTFPAVLQSSGLYSLSSVVTVPSSSLGTQTYICNVNHKPSNTKVDKKVEPKSCPPCPAPEAAGAPSVFLFPPKPKDTLMISRTPEVTCVVVDVSHEDPEVKFNWYVDGVEVHNAKTKPREEQYNSTYRVVSVLTVLHQDWLNGKEYKCKVSNKALPAPIEKTISKAKGQPREPQVYTLPPSRDELTKNQVSLLCLVKGFYPSDIAVEWESNGQPENNYKTTPPVLDSDGSFFLHSKLTVDKSRWQQGNVFSCSVMHEALHNHYTQKSLSLSPGK
light: QVQLQESGPGLVKPSETLSLTCTVSGGSVSSGDYYWTWIRQSPGKGLEWIGHIYYSGNTNYNPSLKSRLTISIDTSKTQFSLKLSSVTAADTAIYYCVRDRVTGAFDIWGQGTMVTVSSGGGGSGGGGSGGGGSGGGGSDIQMTQSPSSLSASVGDRVTITCQASQDISNYLNWYQQKPGKAPKLLIYDASNLETGVPSRFSGSGSGTDFTFTISSLQPEDIATYFCQHFDHLPLAFGGGTKVEIKGGGGSGGGGSGGGGSGGGGSEIVVTQSPATLSVSPGERATLSCRSSTGAVTTSNYANWVQQKPGQAPRGLIGGANKRAPGVPARFSGSLSGDEATLTISSLQSEDFAVYYCALWYSNLWVFGQGTKLEIKRTVAAPSVFIFPPSDEQLKSGTASVVCLLNNFYPREAKVQWKVDNALQSGNSQESVTEQDSKDSTYSLSSTLTLSKADYEKHKVYACEVTHQGLSSPVTKSFNRGECPPCPAPEAAGAPSVFLFPPKPKDTLMISRTPEVTCVVVDVSHEDPEVKFNWYVDGVEVHNAKTKPREEQYNSTYRVVSVLTVLHQDWLNGKEYKCKVSNKALPAPIEKTISKAKGQPREPQVYTLPPSRDELTKNQVSLLCLVKGFYPSDIAVEWESNGQPENNYKTTPPVLDSDGSFFLHSKLTVDKSRWQQGNVFSCSVMHEALHNHYTQKSLSLSPGK

EC50 [5]: 0.613 µg/mL | EC50 [6]: 0.0264 µg/mL
B3: 1.6.1M-Pa-CTR (antibody)
chain 1: EVQLVESGGGLVQPGGSLRLSCAASGFTFNTYAMNWVRQAPGKGLEWVARIRSKYNNYATYYADSVKGRFTISRDDSKNTLYLQMNSLRAEDTAVYYCARHGNFGSSYVSYFAYWGQGTTVTVSSASTKGPSVFPLAPSSKSTSGGTAALGCLVKDYFPEPVTVSWNSGALTSGVHTFPAVLQSSGLYSLSSVVTVPSSSLGTQTYICNVNHKPSNTKVDKKVEPKSCPPCPAPEAAGAPSVFLFPPKPKDTLMISRTPEVTCVVVDVSHEDPEVKFNWYVDGVEVHNAKTKPREEQYNSTYRVVSVLTVLHQDWLNGKEYKCKVSNKALPAPIEKTISKAKGQPREPQVYTLPPSRDELTKNQVSLLCLVKGFYPSDIAVEWESNGQPENNYKTTPPVLDSDGSFFLHSKLTVDKSRWQQGNVFSCSVMHEALHNHYTQKSLSLSPGK
chain 2: QVQLQESGPGLVKPSETLSLTCTVSGGSVSSGDYYWTWIRQSPGKGLEWIGHIYYSGNTNYNPSLKSRLTISIDTSKTQFSLKLSSVTAADTAIYYCVRDRVTGAFDIWGQGTMVTVSSGGGGSGGGGSGGGGSGGGGSDIQMTQSPSSLSASVGDRVTITCQASQDISNYLNWYQQKPGKAPKLLIYDASNLETGVPSRFSGSGSGTDFTFTISSLQPEDIATYFCQHFDHLPLAFGGGTKVEIKGGGGSGGGGSGGGGSGGGGSEIVVTQSPATLSVSPGERATLSCRSSTGAVTTSNYANWVQQKPGQAPRGLIGGANKRAPGVPARFSGSLSGDEATLTISSLQSEDFAVYYCALWYSNLWVFGQGTKLEIKRTVAAPSVFIFPPSDEQLKSGTASVVCLLNNFYPREAKVQWKVDNALQSGNSQESVTEQDSKDSTYSLSSTLTLSKADYEKHKVYACEVTHQGLSSPVTKSFNRGECPPCPAPEAAGAPSVFLFPPKPKDTLMISRTPEVTCVVVDVSHEDPEVKFNWYVDGVEVHNAKTKPREEQYNSTYRVVSVLTVLHQDWLNGKEYKCKVSNKALPAPIEKTISKAKGQPREPQVYTLPPSRDELTKNQVSLLCLVKGFYPSDIAVEWESNGQPENNYKTTPPVLDSDGSFFLHSKLTVDKSRWQQGNVFSCSVMHEALHNHYTQKSLSLSPGK

EC50 [7]: ~99500 µg/mL | EC50 [8]: 0.027 µg/mL
B4: 1.6.1M-Pa-Noncleavable BiTE (bispecific antibody)
heavy: QDGNEEMGGGSQDGNEEMGGIGGGSGGGGSGLSGAGNHGGGGSEVQLVESGGGLVQPGGSLRLSCAASGFTFNTYAMNWVRQAPGKGLEWVARIRSKYNNYATYYADSVKGRFTISRDDSKNTLYLQMNSLRAEDTAVYYCARHGNFGSSYVSYFAYWGQGTTVTVSSASTKGPSVFPLAPSSKSTSGGTAALGCLVKDYFPEPVTVSWNSGALTSGVHTFPAVLQSSGLYSLSSVVTVPSSSLGTQTYICNVNHKPSNTKVDKKVEPKSCPPCPAPEAAGAPSVFLFPPKPKDTLMISRTPEVTCVVVDVSHEDPEVKFNWYVDGVEVHNAKTKPREEQYNSTYRVVSVLTVLHQDWLNGKEYKCKVSNKALPAPIEKTISKAKGQPREPQVYTLPPSRDELTKNQVSLLCLVKGFYPSDIAVEWESNGQPENNYKTTPPVLDSDGSFFLHSKLTVDKSRWQQGNVFSCSVMHEALHNHYTQKSLSLSPGK
light: QVQLQESGPGLVKPSETLSLTCTVSGGSVSSGDYYWTWIRQSPGKGLEWIGHIYYSGNTNYNPSLKSRLTISIDTSKTQFSLKLSSVTAADTAIYYCVRDRVTGAFDIWGQGTMVTVSSGGGGSGGGGSGGGGSGGGGSDIQMTQSPSSLSASVGDRVTITCQASQDISNYLNWYQQKPGKAPKLLIYDASNLETGVPSRFSGSGSGTDFTFTISSLQPEDIATYFCQHFDHLPLAFGGGTKVEIKGGGGSGGGGSGGGGSGGGGSEIVVTQSPATLSVSPGERATLSCRSSTGAVTTSNYANWVQQKPGQAPRGLIGGANKRAPGVPARFSGSLSGDEATLTISSLQSEDFAVYYCALWYSNLWVFGQGTKLEIKRTVAAPSVFIFPPSDEQLKSGTASVVCLLNNFYPREAKVQWKVDNALQSGNSQESVTEQDSKDSTYSLSSTLTLSKADYEKHKVYACEVTHQGLSSPVTKSFNRGECPPCPAPEAAGAPSVFLFPPKPKDTLMISRTPEVTCVVVDVSHEDPEVKFNWYVDGVEVHNAKTKPREEQYNSTYRVVSVLTVLHQDWLNGKEYKCKVSNKALPAPIEKTISKAKGQPREPQVYTLPPSRDELTKNQVSLLCLVKGFYPSDIAVEWESNGQPENNYKTTPPVLDSDGSFFLHSKLTVDKSRWQQGNVFSCSVMHEALHNHYTQKSLSLSPGK

EC50 [7]: 0.462 µg/mL | EC50 [8]: 0.0106 µg/mL
B5: 1.6.1M-Pa-Unmask iBiTE (bispecific antibody)
heavy: EVQLVESGGGLVQPGGSLRLSCAASGFTFNTYAMNWVRQAPGKGLEWVARIRSKYNNYATYYADSVKGRFTISRDDSKNTLYLQMNSLRAEDTAVYYCARHGNFGSSYVSYFAYWGQGTTVTVSSASTKGPSVFPLAPSSKSTSGGTAALGCLVKDYFPEPVTVSWNSGALTSGVHTFPAVLQSSGLYSLSSVVTVPSSSLGTQTYICNVNHKPSNTKVDKKVEPKSCPPCPAPEAAGAPSVFLFPPKPKDTLMISRTPEVTCVVVDVSHEDPEVKFNWYVDGVEVHNAKTKPREEQYNSTYRVVSVLTVLHQDWLNGKEYKCKVSNKALPAPIEKTISKAKGQPREPQVYTLPPSRDELTKNQVSLLCLVKGFYPSDIAVEWESNGQPENNYKTTPPVLDSDGSFFLHSKLTVDKSRWQQGNVFSCSVMHEALHNHYTQKSLSLSPGK
light: QVQLQESGPGLVKPSETLSLTCTVSGGSVSSGDYYWTWIRQSPGKGLEWIGHIYYSGNTNYNPSLKSRLTISIDTSKTQFSLKLSSVTAADTAIYYCVRDRVTGAFDIWGQGTMVTVSSGGGGSGGGGSGGGGSGGGGSDIQMTQSPSSLSASVGDRVTITCQASQDISNYLNWYQQKPGKAPKLLIYDASNLETGVPSRFSGSGSGTDFTFTISSLQPEDIATYFCQHFDHLPLAFGGGTKVEIKGGGGSGGGGSGGGGSGGGGSEIVVTQSPATLSVSPGERATLSCRSSTGAVTTSNYANWVQQKPGQAPRGLIGGANKRAPGVPARFSGSLSGDEATLTISSLQSEDFAVYYCALWYSNLWVFGQGTKLEIKRTVAAPSVFIFPPSDEQLKSGTASVVCLLNNFYPREAKVQWKVDNALQSGNSQESVTEQDSKDSTYSLSSTLTLSKADYEKHKVYACEVTHQGLSSPVTKSFNRGECPPCPAPEAAGAPSVFLFPPKPKDTLMISRTPEVTCVVVDVSHEDPEVKFNWYVDGVEVHNAKTKPREEQYNSTYRVVSVLTVLHQDWLNGKEYKCKVSNKALPAPIEKTISKAKGQPREPQVYTLPPSRDELTKNQVSLLCLVKGFYPSDIAVEWESNGQPENNYKTTPPVLDSDGSFFLHSKLTVDKSRWQQGNVFSCSVMHEALHNHYTQKSLSLSPGK
